Experimental data from patent US20240400703A1 (Genmab, published 2024).
Numbering of substitutions follows the chain as printed. Numbers in names are those of the source.

T1: recombinant human OX40 fused to a His-tag (Acro Biosystems, cat. no. OX0-H5224) (human, UniProt P43489 29-214)
T1 construct: bought protein; also called sOX40; soluble OX40; not shown: His-tag
T1 sequence: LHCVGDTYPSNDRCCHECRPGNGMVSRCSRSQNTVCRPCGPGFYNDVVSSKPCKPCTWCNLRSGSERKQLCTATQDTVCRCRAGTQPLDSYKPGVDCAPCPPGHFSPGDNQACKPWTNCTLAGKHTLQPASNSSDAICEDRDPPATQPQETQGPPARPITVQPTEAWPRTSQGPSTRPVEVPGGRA

T2: recombinant cynomolgus monkey OX40 (Acro Biosystems, cat. no. OX0-C5220) (cynomolgus monkey (Macaca fascicularis), UniProt P43489 29-214 (human entry))
T2 construct: bought protein; also called Cyno OX40
T2 chain: T1 sequence with H16Q, S29N, S50A, P55A, L70P, A145P, I159T, G173R, G183R, R185P

B1: IgG1-CD134-003 (antibody)
heavy: not shown
light: AAVLTQTPSPVSAAVGGTVTIKCQSSQIVVNNNFLSWYQQKPGQPPKLLIYDASNLASGVPDRFSGSGSGTQFTLTISGVQSDDAATYYCLGGYDDDAENAFGGGTEVVVQRTVAAPSVFIFPPSDEQLKSGTASVVCLLNNFYPREAKVQWKVDNALQSGNSQESVTEQDSKDSTYSLSSTLTLSKADYEKHKVYACEVTHQGLSSPVTKSFNRGEC
notes: rabbit-human chimeric IgG1, wild-type Fc; also called parental chimeric antibody
B2: IgG1-CD134-007 (antibody)
heavy: not shown
light: AQVLTQTPSPVSAAVGGTVTISCQSSESVWNNNWLAWYQQKPGQPPNLLIYEASTLASGVSSRFKGSGSGTQFTLTVSEVQSDDAATYYCQGGYYDSSPIWTFGGGTEVVVKRTVAAPSVFIFPPSDEQLKSGTASVVCLLNNFYPREAKVQWKVDNALQSGNSQESVTEQDSKDSTYSLSSTLTLSKADYEKHKVYACEVTHQGLSSPVTKSFNRGEC
notes: rabbit-human chimeric IgG1
B3: IgG1-CD134-012 (antibody)
heavy: not shown
light: DIVMTQTPASVEAAVGGTVTIKCQASENIYSSLAWYQQKPGQPPKLLIYRTSTLASGVPSRFKGSGSGTQFTLTISDLESDDAATYYCQSYYHNSGGGYDYGFGGGTEVVAKRTVAAPSVFIFPPSDEQLKSGTASVVCLLNNFYPREAKVQWKVDNALQSGNSQESVTEQDSKDSTYSLSSTLTLSKADYEKHKVYACEVTHQGLSSPVTKSFNRGEC
notes: rabbit-human chimeric IgG1
B4: IgG1-CD134-003-HC6LC2-P329R-E345R (antibody)
heavy: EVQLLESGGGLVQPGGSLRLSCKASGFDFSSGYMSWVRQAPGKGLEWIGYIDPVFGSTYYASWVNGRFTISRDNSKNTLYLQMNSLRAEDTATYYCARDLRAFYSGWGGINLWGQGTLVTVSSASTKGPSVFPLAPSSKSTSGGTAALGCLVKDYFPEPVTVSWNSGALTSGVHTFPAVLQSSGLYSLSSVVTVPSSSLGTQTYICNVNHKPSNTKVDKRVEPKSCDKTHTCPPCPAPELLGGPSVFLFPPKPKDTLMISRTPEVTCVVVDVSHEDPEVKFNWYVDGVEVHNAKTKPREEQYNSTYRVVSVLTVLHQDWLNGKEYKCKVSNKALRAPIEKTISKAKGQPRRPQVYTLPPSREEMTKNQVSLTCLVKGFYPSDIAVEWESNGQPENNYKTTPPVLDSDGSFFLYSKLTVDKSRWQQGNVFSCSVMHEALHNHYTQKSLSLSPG
light: AAVLTQSPSSLSASVGDRVTITCQSSQIVVNNNFLSWYQQKPGKAPKLLIYDASNLASGVPDRFSGSGSGTDFTFTISSLQPEDIATYYCLGGYDDDAENAFGGGTKVEIKRTVAAPSVFIFPPSDEQLKSGTASVVCLLNNFYPREAKVQWKVDNALQSGNSQESVTEQDSKDSTYSLSSTLTLSKADYEKHKVYACEVTHQGLSSPVTKSFNRGEC
notes: humanized; human IgG1 with P329R and E345R (Eu numbering), kappa; also called IgG1-CD134-003-HC6LC2-RR

Assays:
[1] = target: T1, recombinant human OX40 fused to a …; test: BLI cross-block; first Ab (competitor): IgG1-CD134-MEDI0562
Procedure: (§1) Amine Reactive 2nd Generation (AR2G) biosensors (Sartorius, cat. no. 18-5092) were activated for 300 s with a solution of 20 mM EDC (N-(3-Dimethylaminopropyl)-N-ethylcarbodiimide hydrochloride; Sartorius, cat. no. 18-1033) and 10 mM s-NHS (N-hydroxysulfosuccinimide sodium salt; Sartorius, cat. no. 18-1067). […] After a baseline measurement in Sample Diluent (Sartorius, cat. no. 18-1104) for 50 s, the AR2G biosensors containing immobilized antibody were loaded for 300 s with human OX40 fused to a His-tag (100 nM diluted in Sample Diluent; Acro Biosystems, cat. no. OX0-H5224). The association (300 s) of a second antibody (10 μg/mL in Sample Diluent) was determined. Sensors were regenerated by three cycles of exposure to 10 mM Glycine (Sigma-Aldrich, cat. no. 15527) buffer pH 2.5 for 5 s followed by neutralization in Sample Diluent for 5 s.
(§2) Data were acquired using Data Acquisition Software v12.0 (Sartorius) and analyzed with Data Analysis HT Software v12.0 (Sartorius). Data traces were corrected by subtraction of a reference curve (Sample Diluent instead of second antibody) in order to correct for the dissociation of antigen from the immobilized first antibody. The Y-axis was aligned to the start of the association step and Savitzky-Golay filtering was applied. The corrected association responses of the second antibodies were plotted in a matrix format (Table 5). Responses ≥0.1 nm were considered non-blocking antibody pairs, while responses <0.1 were considered blocking antibody pairs.

[2] = target: T1, recombinant human OX40 fused to a …; test: BLI cross-block; first Ab (competitor): IgG1-CD134-A4453
Procedure: as §1, §2

[3] = target: T1, recombinant human OX40 fused to a …; test: BLI cross-block; first Ab (competitor): IgG1-CD134-SF2
Procedure: as §1, §2

[4] = target: T1, recombinant human OX40 fused to a …; test: BLI cross-block; first Ab (competitor): IgG1-CD134-GBR830
Procedure: (§3) Experiments were carried out while shaking at 1,000 RPM and at 30° C.
as §1, §2

[5] = target: T1, recombinant human OX40 fused to a …; test: BLI cross-block; first Ab (competitor): IgG1-CD134-007
Procedure: as §1, §2

[6] = target: T1, recombinant human OX40 fused to a …; test: BLI cross-block; first Ab (competitor): IgG1-CD134-h3C8
Procedure: as §1, §2

[7] = target: T1, recombinant human OX40 fused to a …; test: BLI cross-block; first Ab (competitor): IgG1-CD134-INCAGN1949
Procedure: as §3, §1, §2

[8] = target: T1, recombinant human OX40 fused to a …; test: BLI, Ab on AHC sensor, OX40 analyte
Procedure: (§4) Experiments were carried out while shaking at 1,000 RPM at 30° C. […] Next, AHC sensors were loaded with antibody (1 μg/mL in Sample Diluent) for 600 s. After a baseline measurement in sample diluent (100 s), the association (200 s) and dissociation (1,000 s) of human OX40 (Acro Biosystems, cat. no. OX0-H5224), and cynomolgus monkey OX40 (Acro Biosystems, cat. no. OX0-C5220) was determined using a concentration range of 0.78 to 800 nM with 2-fold dilution steps.
(§5) The theoretical molecular masses of the antigens based on the amino acid sequences were used for calculations. For each antibody, a reference sensor was used which was incubated with Sample Diluent instead of antigen. AHC sensors were regenerated by exposure to 10 mM glycine buffer pH 1.7 for 5 s, followed by neutralization in Sample Diluent for 5 s; both steps were repeated twice. Subsequently sensors were loaded again with antibody for the next cycle of kinetic measurements.
(§6) Data were acquired using Data Acquisition Software v12.0 (Sartorius) and analyzed with Data Analysis Software v12.0 (Sartorius). Data traces were corrected per antibody by subtraction of the reference sensor. The Y-axis was aligned to the last 10 s of the baseline and Interstep Correction alignment to dissociation as well as Savitzky-Golay filtering were applied. Data traces with a response <0.05 nm were excluded from analysis. […] The data was fitted with the 1:1 model using a window of interest for the association of 200 s and dissociation times set at 50 s, 200 s and 1,000 s. The dissociation time was chosen based upon R² value, visual inspection of the curve and at least 5% signal decay during the dissociation step.

[9] = target: T2, recombinant cynomolgus monkey OX40 …; test: BLI, Ab on AHC sensor, OX40 analyte
Procedure: as §4, §5, §6

[10] = target: T1, recombinant human OX40 fused to a …; test: BLI cross-block; first Ab (competitor): IgG1-CD134-IBI101
Procedure: as §1, §2

Row | Binder | association response [1] [nm] | association response [2] [nm] | association response [3] [nm] | association response [4] [nm] | association response [5] [nm] | association response [6] [nm] | association response [7] [nm] | Kd [8] [nM] | koff [8] [s⁻¹] | kon [8] [M⁻¹ s⁻¹] | Kd [9] [nM] | koff [9] [s⁻¹] | kon [9] [M⁻¹ s⁻¹] | association response [10] [nm]
1 | B1 | 0.3 | 0.26 | 0.21 | 0.2 | -0.07 | 0.46 | 0.15 | 1.1 | 0.00035 | 330000 | 3.5 | 0.00096 | 280000 | 0.23
2 | B2 | 0.32 | 0.28 | 0.22 | 0 | 0.01 | -0.02 | 0.06 | 2 | 0.00075 | 380000 | 7.1 | 0.0018 | 260000 | 0
3 | B3 | 0.23 | 0.22 | 0.14 | 0.16 | 0.82 | 0.35 | 0.07 | 11 | 0.0016 | 140000 |  |  |  | 0.28
4 | B4 | 0.34 | 0.31 | 0.22 | 0.19 | -0.04 | 0.5 | 0.19 | 3.4 | 0.00086 | 250000 | 27 | 0.0029 | 110000 | 0.34
